This is an account of results in paper PMC6748581.

In general, Kd refers to the free concentration of one partner at which half of the binding sites on the other are occupied at equilibrium, for simple one-to-one binding.

Holding throughout (experiment): SPR
In general terms: In SPR one partner is held on a chip, and binding of the other changes the refractive index at the surface.

The target in assay [1] is Anti-IL-13 IgG1 ΔK-P221 IgA2m1 Fc Dimer (human) (UniProt P01591).
In assay [2] the target is anti-mIL-13 IgA2m1 P221R Monomer (human).
Assay [3] has as its target anti-mIL-13 IgA2m1 P221R Dimer (human) (UniProt P01591).
The target of assay [4] is anti-mIL-13 IgA2m2 Monomer (human).
The target of assay [5] is anti-mIL-13 IgA1 Monomer (human).
Assay [6] addresses anti-mIL-13 IgA2m1 Dimer (human) (UniProt P01591).
Assay [7] has as its target anti-mIL-13 IgA2m2 Dimer (human) (UniProt P01591).
For assay [8], the target named is anti-mIL-13 IgA2m1 Monomer (human).
The target in assay [9] is anti-mIL-13 IgA2m2 Tetramer (human) (UniProt P01591).
In assay [10] the target is anti-mIL-13 IgA1 Dimer (human) (UniProt P01591).
The target in assay [11] is Anti-IL-13 IgG1 ΔK-C242 IgA2m1 Fc Dimer (human) (UniProt P01591).
The target of assay [12] is anti-mIL-13 human IgG1 (human).
The target in assay [13] is Anti-HER2 IgA2m2 Polymer Aglycosylated (human) (UniProt P01591).

Consider “human Fc alpha receptor 1 (from UniProt P24071)”, for which the equilibrium dissociation constant (Kd) in assay [1] turned out to be 1070 nM; in [2], 443 nM; in [3], 462 nM; in [4], 455 nM; in [5], 425 nM; in assay [6], 499 nM. The Kd in [7] came out at 597 nM; in assay [8], 429 nM; in assay [9] it was 533 nM; in assay [10], 369 nM; in assay [11], 938 nM.
In the case of “human FcRn co-expressed with human beta-2 microglobulin (from UniProt P55899;P61769) (complex)”, the Kd is 8400 nM in assay [1], 9800 nM in [12] and 9900 nM in assay [11].
As for “human polymeric immunoglobulin receptor (from UniProt P01833)”, the dissociation constant (Kd) in assay [1] came out at 7.67 nM; in assay [3] it was 15.5 nM; in assay [13] it was 0.72 nM; in assay [6] it was 5.05 nM; in assay [7] it was 13.9 nM; in assay [9], 1.93 nM. The dissociation constant Kd in assay [10] worked out at 8.8 nM; in [11], 4.41 nM.
With “mouse FcRn co-expressed with mouse beta-2 microglobulin (from UniProt Q61559;P01887) (complex)”, the Kd in assay [1] was 6800 nM; in assay [12] it was 7800 nM; in assay [11], 7400 nM.
In assay [13], “mouse polymeric immunoglobulin receptor (from UniProt O70570)” registered a Kd of 0.55 nM.

B1: mouse polymeric immunoglobulin receptor (receptor)
chain: KSPIFGPQEVSSIEGDSVSITCYYPDTSVNRHTRKYWCRQGASGMCTTLISSNGYLSKEYSGRANLINFPENNTFVINIEQLTQDDTGSYKCGLGTSNRGLSFDVSLEVSQVPELPSDTHVYTKDIGRNVTIECPFKRENAPSKKSLCKKTNQSCELVIDSTEKVNPSYIGRAKLFMKGTDLTVFYVNISHLTHNDAGLYICQAGEGPSADKKNVDLQVLAPEPELLYKDLRSSVTFECDLGREVANEAKYLCRMNKETCDVIINTLGKRDPDFEGRILITPKDDNGRFSVLITGLRKEDAGHYQCGAHSSGLPQEGWPIQTWQLFVNEESTIPNRRSVVKGVTGGSVAIACPYNPKESSSLKYWCRWEGDGNGHCPVLVGTQAQVQEEYEGRLALFDQPGNGTYTVILNQLTTEDAGFYWCLTNGDSRWRTTIELQVAEATREPNLEVTPQNATAVLGETFTVSCHYPCKFYSQEKYWCKWSNKGCHILPSHDEGARQSSVSCDQSSQLVSMTLNPVSKEDEGWYWCGVKQGQTYGETTAIYIAVEERTRGSSHVNPTDANARAKVALEEEVVDSSISEKENKAIPNPGPFANEREIQNVGDQAQENRASGDAGSADGQSRSSSSK
Turning to B1, the dissociation constant (Kd) amounted to 3.32 nM in [1]; 5.59 nM in [3]; 2.54 nM in assay [6]; 2.45 nM in assay [7]; 0.69 nM in assay [9]; 2.66 nM in assay [10]. For the same molecule, the Kd in assay [11] stood at 3.32 nM.
